Laboratory results from publication PMC4509486, “Inside-out Ca^2+ signalling prompted by STIM1 conformational switch” (Nature Communications, 2015).
Substitutions are numbered along the chain they refer to. Names may count otherwise.

How the values were obtained:
[1] = target: the molecule itself; experiment: SEC-MALS; Superdex 200 10/300 GL; 500 μl of 10–100 μM protein; 20 mM Tris-HCl pH 7.3, 150 mM NaCl, 2 mM dithiothreitol, 0.6% N-lauroylsarcosine; 0.3 ml/min
[2] = target: the molecule itself; experiment: cross-linking; copper-phenanthroline (1 mM CuSO4/3 mM 1,10-phenanthroline) disulfide cross-linking of purified protein (1 mg/ml) in 20 mM HEPES pH 7.4, 150 mM NaCl, 1 mM TCEP, on ice 15 min; non-reducing SDS-PAGE; efficiency = dimer/(monomer + dimer)
[3] = target: the molecule itself; experiment: FRET or BRET; inter-subunit FRET between FITC- and TMR-labelled monocysteine TM-CC1 in PBS pH 7.3, 1% OG, 1 mM TCEP; excitation 475 nm
[4] = target: the molecule itself; experiment: SEC + native gel or EMSA; in vitro, with or without Ca^2+; detergents needed to keep the proteins soluble

B1: GB1-TM-CC1 (STIM1 residues 209–310), wild type (domain or fragment, UniProt Q13586 209-310, looked up)
chain: NHLKDFMLVVSIVIGVGGCWFAYIQNRYSKEHMKKMMKDLEGLHRAEQSLHDLQERLHKAQEEHRTVEVEKVHLEKKLRDEINLAKQEAQRLKELREGTENE
notes: STIM1 residues 209-310 (transmembrane domain and CC1); also called STIM1_(209–310); WT; source: E. coli BL21 (DE3), purified (Ni-NTA, gel filtration); not shown: GB1, N-terminal, kept
B1 was tested, and the “stoichiometry N” value [1] was 2.

B2: GB1-TM-CC1 monocysteine variant F229C on the C227W background (domain or fragment, UniProt Q13586 209-310, looked up)
chain: B1 chain with C19W, F21C
notes: STIM1 residues 209-310; also called F229C (C227W); source: E. coli BL21 (DE3), purified; not shown: GB1, N-terminal, kept
B2: binds [2].

B3: TM-CC1 monocysteine variant F214C on the C227W background, labelled with FITC or TMR (domain or fragment, UniProt Q13586 209-310, looked up)
chain: B1 chain with F6C, C19W
modifications: FITC-maleimide or TMR-maleimide on the single cysteine (F214C)
notes: STIM1 residues 209-310 (TM-CC1); also called F214C (C227W TM-CC1); source: E. coli BL21 (DE3), purified, dye-labelled
B3: binds [3].

B4: GB1-TM-CC1 monocysteine variant I220C on the C227S background (domain or fragment, UniProt Q13586 209-310, looked up)
chain: B1 chain with I12C, C19S
notes: STIM1 residues 209-310; also called I220C (C227S); source: E. coli BL21 (DE3), purified; not shown: GB1, N-terminal, kept
B4: binds [2].

B5: GB1-TM-CC1 (STIM1 residues 209–310) C227W (domain or fragment, UniProt Q13586 209-310, looked up)
chain: B1 chain with C19W
notes: STIM1 residues 209-310; also called TM-CC1-C227W; source: E. coli BL21 (DE3), purified (Ni-NTA, gel filtration); not shown: GB1, N-terminal, kept
B5 was tested, and the “stoichiometry N” value [1] was 2.

B6: TM-CC1 monocysteine variant N234C on the C227W background, labelled with FITC or TMR (domain or fragment, UniProt Q13586 209-310, looked up)
chain: B1 chain with C19W, N26C
modifications: FITC-maleimide or TMR-maleimide on the single cysteine (N234C)
notes: STIM1 residues 209-310 (TM-CC1); also called N234C (C227W TM-CC1); source: E. coli BL21 (DE3), purified, dye-labelled
B6: binds [3].

B7: GB1-TM-CC1 monocysteine variant I220C on the C227W background (domain or fragment, UniProt Q13586 209-310, looked up)
chain: B1 chain with I12C, C19W
notes: STIM1 residues 209-310; also called I220C (C227W); source: E. coli BL21 (DE3), purified; not shown: GB1, N-terminal, kept
B7: binds [2].

B8: GB1-TM-CC1 monocysteine variant F229C on the C227S background (domain or fragment, UniProt Q13586 209-310, looked up)
chain: B1 chain with C19S, F21C
notes: STIM1 residues 209-310; also called F229C (C227S); source: E. coli BL21 (DE3), purified; not shown: GB1, N-terminal, kept
B8: binds [2].

B9: STIM1 1–342 (characterized in vitro) (domain or fragment, UniProt Q13586 23-342, looked up)
chain: LSHSHSEKATGTSSGANSEESTAAEFCRIDKPLCHSEDEKLSFEAVRNIHKLMDDDANGDVDVEESDEFLREDLNYHDPTVKHSTFHGEDKLISVEDLWKAWKSSEVYNWTVDEVVQWLITYVELPQYEETFRKLQLSGHAMPRLAVTNTTMTGTVLKMTDRSHRQKLQLKALDTVLFGPPLLTRHNHLKDFMLVVSIVIGVGGCWFAYIQNRYSKEHMKKMMKDLEGLHRAEQSLHDLQERLHKAQEEHRTVEVEKVHLEKKLRDEINLAKQEAQRLKELREGTENERSRQKYAEEELEQVREALRKAEKELESHSSWY
notes: signal peptide in the construct; it may be the CFP fusion m18
In the case of B9, the “stoichiometry N” value [4] is reported as 2.
